Data as given in the supplement of paper PMC10567573.

B1: UFD1L (parent)
chain: EAGGRFVAFSGEGQSLRKKGRKP
B2: MMP1 (parent)
chain: YTPDLPRADVDHAIEKAFQLWSNV

Variants of: B1
Test: protein stability index of a GFP-peptide fusion (GPS, HEK-293T) (PSI 1-6); higher = more stable
Details: c terminus: native
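Note: lentivirally expressed fusions sorted by FACS into six bins by GFP to DsRed ratio, PSI derived from sequencing read proportions per bin multiplied by bin number.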

| Variant | protein stability index |
| --- | --- |
| LAGGRFVAFSGEGQSLRKKGRKP [E1L] | 1.92 |
| YAGGRFVAFSGEGQSLRKKGRKP [E1Y] | 3.86 |
| TAGGRFVAFSGEGQSLRKKGRKP [E1T] | 2.17 |
| CAGGRFVAFSGEGQSLRKKGRKP [E1C] | 2.5 |
| DAGGRFVAFSGEGQSLRKKGRKP [E1D] | 2.33 |
| GAGGRFVAFSGEGQSLRKKGRKP [E1G] | 2.5 |
| ENGGRFVAFSGEGQSLRKKGRKP [A2N] | 1.23 |
| EDGGRFVAFSGEGQSLRKKGRKP [A2D] | 3.92 |
| EPGGRFVAFSGEGQSLRKKGRKP [A2P] | 2.55 |
| ESGGRFVAFSGEGQSLRKKGRKP [A2S] | 1.82 |
| EIGGRFVAFSGEGQSLRKKGRKP [A2I] | 3 |
| EHGGRFVAFSGEGQSLRKKGRKP [A2H] | 1.15 |
| ERGGRFVAFSGEGQSLRKKGRKP [A2R] | 1.1 |

Variants of: B2
Test: as above
Details: c terminus: a fixed tail appended

| Variant | protein stability index |
| --- | --- |
| DTPDLPRADVDHAIEKAFQLWSNV [Y1D] | 3.57 |
| FTPDLPRADVDHAIEKAFQLWSNV [Y1F] | 2.48 |
| LTPDLPRADVDHAIEKAFQLWSNV [Y1L] | 2.87 |
| YTPDLPRADVDHMIEKAFQLWSNV [A13M] | 2.61 |
| YTPDLPRADVDHCIEKAFQLWSNV [A13C] | 1.93 |
| YTPDLPRADVDHSIEKAFQLWSNV [A13S] | 1.89 |
| YTPDLPRADVDHYIEKAFQLWSNV [A13Y] | 1.95 |
| YTPDLPRADVDHQIEKAFQLWSNV [A13Q] | 2.03 |
| YTPDLPRADVDHRIEKAFQLWSNV [A13R] | 2.08 |
| YTPDLPRADVDQAIEKAFQLWSNV [H12Q] | 1.69 |
| YTPDLPRADVDRAIEKAFQLWSNV [H12R] | 1.64 |
| YTPDLPRADVDDAIEKAFQLWSNV [H12D] | 2.09 |
| YTPDLPRADVDNAIEKAFQLWSNV [H12N] | 1.92 |
| YTPDLPRADVDIAIEKAFQLWSNV [H12I] | 2 |
| YTPDLPRADVDTAIEKAFQLWSNV [H12T] | 1.82 |
| YTPDLPRADVDSAIEKAFQLWSNV [H12S] | 1.58 |
| YTPDLPRADVDVAIEKAFQLWSNV [H12V] | 1.95 |
| YTPDLPRADVDPAIEKAFQLWSNV [H12P] | 2.11 |
| YTPDLPRADVDHAIEKAFQHWSNV [L20H] | 2.38 |
| YTPDLPRADVDHAIEKAFQSWSNV [L20S] | 2.29 |
| YTPDLPRADVDHAIEKAFQFWSNV [L20F] | 2.67 |

| Variant | protein stability index |
| --- | --- |
| YTPDLPRADVDHAIEKAFQDWSNV [L20D] | 2.96 |
| YTPDLPRADVDHAIEKAFQRWSNV [L20R] | 1.99 |
| YTPDLPRADVDHAIEKAFQAWSNV [L20A] | 2.17 |
| YTPDLPRADVDHAIEKAFQIWSNV [L20I] | 2.16 |
| YTPDLPRADVDHAIEKAFQGWSNV [L20G] | 1.9 |
| YTPDLPRADVDHAIEKAFQLWSCV [N23C] | 1.29 |
| YTPDLPRADVDHAIEKAFQLWSTV [N23T] | 2.07 |
| YTPDLPRADVDHAIEKAFQLWSMV [N23M] | 2.02 |
| YTPDLPRADVDHAIEKAFQLWSIV [N23I] | 2.05 |
| YTPDLPRADVDHAIEKAFQLWSVV [N23V] | 2.23 |
| YTPDLPRADVDHAIEKAFQLWSHV [N23H] | 1.69 |
| YTPDLPRADVDHAIEKAFQLWSSV [N23S] | 2.28 |
| YTPDLPRADVDHAIEKAFQLWQNV [S22Q] | 1.98 |
| YTPDLPRADVDHAIEKAFQLWVNV [S22V] | 1.44 |
| YTPDLPRADVDHAIEKAFQLWLNV [S22L] | 2.19 |
| YTPDLPRADVDHAIEKAFQLWINV [S22I] | 2.04 |
| YTPDLPRADVDHAIEKAFQLWRNV [S22R] | 1.72 |
| YTPDLPRADVDHAIEKAFQLWENV [S22E] | 2.75 |
| YTPDLPRADVDHAIEKAFQLWMNV [S22M] | 1.69 |
| YTPDLPRADVDHAIESAFQLWSNV [K16S] | 2 |
| YTPDLPRADVDHAIELAFQLWSNV [K16L] | 1.52 |

| Variant | protein stability index |
| --- | --- |
| YTPDLPRADVDHAIEAAFQLWSNV [K16A] | 2.07 |
| YTPDLPRADVDHAIETAFQLWSNV [K16T] | 2.03 |
| YTPDLPRADVDHAIEEAFQLWSNV [K16E] | 1.76 |
| YTPDLPRADVDHAIEDAFQLWSNV [K16D] | 1.71 |
| YTPDLPRADVDHAIEGAFQLWSNV [K16G] | 1.19 |
| YTPDLPRADVDHAIECAFQLWSNV [K16C] | 2.02 |
| YTPDLPRADVDHAIEKARQLWSNV [F18R] | 1.66 |
| YTPDLPRADVDHAIEKACQLWSNV [F18C] | 1.69 |
| YTPDLPRADVDHAIEKAWQLWSNV [F18W] | 1.48 |
| YTPDLPRADVDHAIEKAPQLWSNV [F18P] | 1.99 |
| YTPDLPRADVDHAIEKAQQLWSNV [F18Q] | 1.73 |
| YTPDLPRADVDHAIEKAIQLWSNV [F18I] | 2.41 |
| YTPDLPRADVDHAIEKAVQLWSNV [F18V] | 2.04 |
| YTPDLPRADVDHAIEKAYQLWSNV [F18Y] | 2.11 |
| YTPDLPRADVDHAIEKADQLWSNV [F18D] | 2.18 |
| YTPDLPRADVDHAIEKAAQLWSNV [F18A] | 1.83 |
| YTPDLPRADVDHAIEKAFCLWSNV [Q19C] | 3.82 |
| YTPDLPRADVDHAIEKAFLLWSNV [Q19L] | 1.05 |
| YTPDLPRADVDHAIEKAFTLWSNV [Q19T] | 3.63 |
| YTPDLPRADVDHAIEKAFDLWSNV [Q19D] | 2.5 |
| YTPDLPRADVDHAIEKAFALWSNV [Q19A] | 1.54 |

| Variant | protein stability index |
| --- | --- |
| YTPDLPRADVDHAIEKAFILWSNV [Q19I] | 2.33 |
| YTPDLPRADVDHAIEKAFNLWSNV [Q19N] | 2.82 |
| YTPDLPRADVDHAIEKAFGLWSNV [Q19G] | 1.75 |
| YTPDLPRADVDHAPEKAFQLWSNV [I14P] | 2.14 |
| YTPDLPRADVDHAYEKAFQLWSNV [I14Y] | 2.17 |
| YTPDLPRADVDHAHEKAFQLWSNV [I14H] | 1.62 |
| YTPDLPRADVDHAWEKAFQLWSNV [I14W] | 1.46 |
| YTPDLPRADVDHATEKAFQLWSNV [I14T] | 1.39 |
| YTPDLPRADVDHAMEKAFQLWSNV [I14M] | 1.7 |
| YTPDLPRADVDHAEEKAFQLWSNV [I14E] | 1.36 |
| YTPDLPRADVDHACEKAFQLWSNV [I14C] | 2.1 |
| YTPDLPRADVDHAINKAFQLWSNV [E15N] | 1.97 |
| YTPDLPRADVDHAIPKAFQLWSNV [E15P] | 1.93 |
| YTPDLPRADVDHAIVKAFQLWSNV [E15V] | 1.39 |
| YTPDLPRADVDHAIAKAFQLWSNV [E15A] | 1.46 |
| YTPDLPRADVDHAIHKAFQLWSNV [E15H] | 2.09 |
| YTPDLPRADVDHAIGKAFQLWSNV [E15G] | 2.54 |
| YTPDLPRADVDHAILKAFQLWSNV [E15L] | 2.65 |
